# According to the supplement of paper PMC10567573:
# B1: HESX1 (parent)
# chain: QKKDCVPLMKPHRPWADTCSSSGK
# Variants of: B1
# Experiment: protein stability index of a GFP-peptide fusion (GPS, HEK-293T) (PSI 1-6); higher = more stable
# Settings: c terminus: a fixed tail appended
# 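Note: lentivirally expressed fusions sorted by FACS into six bins by GFP to DsRed ratio, PSI derived from sequencing read proportions per bin multiplied by bin number.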
row,Variant,protein stability index
1,QKKDCVPLMKPHRPWADTCSSIGK,3.13
2,QKKDCVPLMKPHRPWADTCSSFGK,2.74
3,QKKDCVPLMKPHRPWADTCSSTGK,3.08
4,QKKDCVPLMKPHRPWADTCSSGGK,2.23
5,QKKDCVPLMKPHRPWADTCSSEGK,3.13
6,QKKDCVPLMKPHRPWADTCSSVGK,2.78
7,QKKDCVPLMKPHRPWADTCSSWGK,2.12
8,QKKDCVPLMKPHRPWADTCSSPGK,3.68
9,QKKDCVPLMKPHRPWADTCSSKGK,3.69
10,QKKDCVPLMKPHRPWADTCSSDGK,2.61
11,QKKDCVPLMKPHRPWADTCSSCGK,2.94
12,QKKDCVPLMKPHRPWADTCSSAGK,2.95
13,QKKDCVPLMKPHRPWADTCSSNGK,2.89
14,QKKDCVPLMKPHRPWADTCSSHGK,3.96
15,QKKDCVPLMKPHRPWADTCSSMGK,3.43
16,QKKDCVPLMKPHRPWADTCSSRGK,3.3
17,QKKDCVPLMKPHRPWADTCSSYGK,3.29
18,QKKDCVPLMKPHRPWADTCSSSGT,2.85
19,QKKDCVPLMKPHRPWADTCSSSGW,1.98
20,QKKDCVPLMKPHRPWADTCSSSGE,2.28
21,QKKDCVPLMKPHRPWADTCSSSGY,1.98
22,QKKDCVPLMKPHRPWADTCSSSGN,2.97
23,QKKDCVPLMKPHRPWADTCSSSGL,1.78
24,QKKDCVPLMKPHRPWADTCSSSGP,3.18

row,Variant,protein stability index
1,QKKDCVPLMKPHRPWADTCSSSGD,3.22
2,QKKDCVPLMKPHRPWADTCSSSGQ,3.57
3,QKKDCVPLMKPHRPWADTCSSSGS,2.23
4,QKKDCVPLMKPHRPWADTCSSSGH,2.46
5,QKKDCVPLMKPHRPWADTCSSSGV,2.55
6,QKKDCVPLMKPHRPWADTCSSSGI,2.51
7,QKKDCVPLMKPHRPWADTCSSSGM,2.05
8,QKKDCVPLMKPHRPWADTCSSSGA,3.7
9,QKKDCVPLMKPHRPWADTCSSSGC,3.33
10,QKKDCVPLMKPHRPWADTCSSSGF,2.56
11,QKKDCVPLMKPHRPWADTCSSSGG,3.62
12,QKKDCVPLMKPHRPWADTCKSSGK,3.83
13,QKKDCVPLMKPHRPWADTCHSSGK,3.24
14,QKKDCVPLMKPHRPWADTCNSSGK,3.33
15,QKKDCVPLMKPHRPWADTCDSSGK,3.32
16,QKKDCVPLMKPHRPWADTCFSSGK,2.3
17,QKKDCVPLMKPHRPWADTCRSSGK,3
18,QKKDCVPLMKPHRPWADTCESSGK,3.47
19,QKKDCVPLMKPHRPWADTCISSGK,2.98
20,QKKDCVPLMKPHRPWADTCTSSGK,2.96
21,QKKDCVPLMKPHRPWADTCYSSGK,2.31
22,QKKDCVPLMKPHRPWADTCLSSGK,2.61
23,QKKDCVPLMKPHRPWADTCQSSGK,3.05
24,QKKDCVPLMKPHRPWADTCWSSGK,2.74

row,Variant,protein stability index
1,QKKDCVPLMKPHRPWADTCVSSGK,3.84
2,QKKDCVPLMKPHRPWADTCCSSGK,3.03
3,QKKDCVPLMKPHRPWADTCASSGK,3.71
4,QKKDCVPLMKPHRPWADTCGSSGK,2.38
5,QKKDCVPLMKPHRPWADTCPSSGK,3.79
6,QKKDCVPLMKPHRPWADTCMSSGK,3.18
7,QKKDCVPLMKPHRPWADTPSSSGK,4.37
8,QKKDCVPLMKPHRPWADTWSSSGK,2.47
9,QKKDCVPLMKPHRPWADTVSSSGK,2.17
10,QKKDCVPLMKPHRPWADTSSSSGK,4.36
11,QKKDCVPLMKPHRPWADTTSSSGK,3.82
12,QKKDCVPLMKPHRPWADTRSSSGK,4.08
13,QKKDCVPLMKPHRPWADTYSSSGK,3.25
14,QKKDCVPLMKPHRPWADTQSSSGK,4.03
15,QKKDCVPLMKPHRPWADTCSVSGK,3.15
16,QKKDCVPLMKPHRPWADTCSWSGK,2.79
17,QKKDCVPLMKPHRPWADTCSESGK,3.86
18,QKKDCVPLMKPHRPWADTCSFSGK,2.44
19,QKKDCVPLMKPHRPWADTCSQSGK,3.75
20,QKKDCVPLMKPHRPWADTCSDSGK,3.24
21,QKKDCVPLMKPHRPWADTCSISGK,2.69
22,QKKDCVPLMKPHRPWADTCSKSGK,3.68
23,QKKDCVPLMKPHRPWADTCSNSGK,3.4
24,QKKDCVPLMKPHRPWADTCSTSGK,3.38

row,Variant,protein stability index
1,QKKDCVPLMKPHRPWADTCSMSGK,2.58
2,QKKDCVPLMKPHRPWADTCSASGK,3.61
3,QKKDCVPLMKPHRPWADTCSGSGK,3.92
4,QKKDCVPLMKPHRPWADTCSCSGK,2.92
5,QKKDCVPLMKPHRPWADTCSPSGK,3.58
6,QKKDCVPLMKPHRPWADTCSRSGK,2.56
7,QKKDCVPLMKPHRPWADTCSLSGK,3.18
8,QKKDCVPLMKPHRPWADTCSYSGK,2.32
9,QKKDCVPLMKPHRPWADTCSHSGK,2.88
10,QKKDCVPLMKPHRPWADTCSSSIK,2.76
11,QKKDCVPLMKPHRPWADTCSSSNK,3.13
12,QKKDCVPLMKPHRPWADTCSSSWK,1.6
13,QKKDCVPLMKPHRPWADTCSSSRK,3.5
14,QKKDCVPLMKPHRPWADTCSSSAK,3.69
15,QKKDCVPLMKPHRPWADTCSSSPK,3.81
16,QKKDCVPLMKPHRPWADTCSSSDK,2.46
17,QKKDCVPLMKPHRPWADTCSSSKK,4.08
18,QKKDCVPLMKPHRPWADTCSSSCK,2.45
19,QKKDCVPLMKPHRPWADTCSSSLK,3.46
20,QKKDCVPLMKPHRPWADTCSSSSK,3.32
21,QKKDCVPLMKPHRPWADTCSSSYK,3.15
22,QKKDCVPLMKPHRPWADTCSSSFK,1.61
